One molecule from article PMC6047744 can be followed below.

This data set deals with Polθ-helicase domain (human, UniProt O75417 1-894). Briefly: EMSA. In general terms: A gel shift assay detects complexes by their altered migration in electrophoresis.
Polθ-helicase domain, sequence (O75417 1-894): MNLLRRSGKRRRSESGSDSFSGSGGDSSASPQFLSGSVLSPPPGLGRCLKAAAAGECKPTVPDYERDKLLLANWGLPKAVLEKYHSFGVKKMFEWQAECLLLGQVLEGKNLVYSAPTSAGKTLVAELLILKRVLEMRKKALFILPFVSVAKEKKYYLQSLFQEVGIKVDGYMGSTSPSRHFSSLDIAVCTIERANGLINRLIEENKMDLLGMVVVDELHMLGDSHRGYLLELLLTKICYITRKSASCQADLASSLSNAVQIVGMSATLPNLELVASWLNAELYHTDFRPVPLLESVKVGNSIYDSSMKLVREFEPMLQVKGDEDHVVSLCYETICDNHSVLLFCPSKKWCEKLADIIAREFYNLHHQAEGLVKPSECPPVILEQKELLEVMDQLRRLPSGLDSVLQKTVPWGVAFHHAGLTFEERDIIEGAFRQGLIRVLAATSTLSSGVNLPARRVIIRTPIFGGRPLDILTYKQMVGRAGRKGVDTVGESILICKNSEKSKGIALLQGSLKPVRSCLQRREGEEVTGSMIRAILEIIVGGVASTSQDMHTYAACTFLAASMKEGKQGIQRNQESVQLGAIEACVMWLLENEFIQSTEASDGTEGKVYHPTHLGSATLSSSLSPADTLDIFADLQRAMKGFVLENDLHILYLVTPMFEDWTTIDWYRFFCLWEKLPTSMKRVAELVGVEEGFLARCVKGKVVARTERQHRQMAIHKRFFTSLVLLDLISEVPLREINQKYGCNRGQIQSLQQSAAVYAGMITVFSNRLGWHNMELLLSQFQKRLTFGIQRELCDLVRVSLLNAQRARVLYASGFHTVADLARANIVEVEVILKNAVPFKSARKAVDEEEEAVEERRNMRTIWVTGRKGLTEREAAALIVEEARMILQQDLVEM

In the case of TTTTATATTTTGTTTTGTGTTATTTTTTTCTTTAACAT (ssDNA) [SM76], the binding result is listed as “binds”.
